Laboratory results as given in patent US20220241413A1, “COMBINATION THERAPIES USING CD-38 ANTIBODIES” (Takeda Pharmaceutical Company Limited, priority 2019, published 2022).

How the values were obtained:
[1] = Phase 1 study in healthy subjects (AB79-101): safety; type: in vivo, human
Experimental: In a phase 1 study in healthy subjects (Study AB79-101), AB79 reduced the levels of peripheral blood and natural killer (NK) cells >90% from baseline in all subjects receiving a single 0.06 mg/kg IV dose of AB79, with a maximum observed concentration (Cmax) of 0.1 μg/mL. (U.S. Pat. No. 8,362,211; U.S. International Patent Application Serial Nos. PCT/US2019/013547 and PCT/US2019/024431). […] Potent reduction of plasmablasts was observed across cohorts of patients in the RRMM trial (Study AB79-1501). […] Consequently, AB79 may be more efficient at eliminating cells expressing high levels of CD38, which could manifest as higher activity on tumor cells (e.g., improved and deeper response rates across a population of patients with myeloma).
AB79 IV reduced the levels of peripheral blood NK cells >90% from baseline levels in all subjects receiving a single 0.06 mg/kg IV dose, with a Cmax of 0.1 μg/mL. […] As a potent and convenient second-generation anti-CD38 mAb, AB79 SC warranted therapeutic development for the treatment of multiple myeloma (MM).

[2] = AB79-1002 phase 1b study, AB79 with LenDex or VRd in NDMM: safety; type: in vivo
Excerpt: (§1) This is a Phase 1b, open-label, multicenter study to evaluate the safety, efficacy, tolerability, and pharmacokinetics (PK) of AB79 when added to 1 of 2 standard backbone regimens (lenalidomide plus dexamethasone [LenDex] or bortezomib [Velcade] plus lenalidomide and dexamethasone [VRd]) in adult patients with newly diagnosed multiple myeloma (NDMM) for whom stem cell transplantation (SCT) is not planned as initial therapy. The dose and schedule for the backbone regimens (LenDex and VRd) are given in accordance with product labeling or standard medical practice. Treatment cycles are 28 days until disease progression (PD) or unacceptable toxicity occurs. Treatment may be discontinued for other reasons listed below. AB79 is supplied by the sponsor. Bortezomib, dexamethasone, and lenalidomide are standard-of-care agents that are supplied from commercial sources.
300 mg of AB79 is administered subcutaneously once weekly for 8 weeks (8 doses), once every 2 weeks for 16 weeks (8 doses), and once every 4 weeks thereafter until PD (in combination with backbone therapy). Backbone therapies (LenDex or VRd) are dosed in accordance with product labeling/local institutional practices. VRd is given with bortezomib weekly×3 weeks and LenDex in a standard 28 day cycle. Patients are evaluated from first dose of AB79 until 30 days after PD or until protocol-defined treatment discontinuation criteria are met.
Changes in clinical laboratory parameters (standard hematology and chemistry), vital sign, electrocardiogram (ECG) monitoring, and Eastern Cooperative Oncology Group (ECOG) performance status that are judged by the investigator as clinically significant are recorded both on the source documentation and in the electronic case report (eCRF) as an AE. Toxicities that occur during the DLT evaluation period are used for the purposes of defining DLT and for subsequent cohort expansion or dose modification decisions. DLTs are based on AB79-related toxicities.
The study was designed to determine the recommended phase 2 dose (RP2D) and to provide a preliminary assessment of the AB79 combinations against NDMM. Parameters such as safety, tolerability, pharmacokinetics (PK), pharmacodynamics (PD), and disease response were assessed.

[3] = test system: newly diagnosed multiple myeloma (NDMM); assay: AB79-1002 phase 1b study, AB79 with LenDex or VRd in NDMM: disease response; type: in vivo, human; conditions: total population including both backbone regimens, one patient pending
Excerpt: as §1, with “sources. […]” for “sources.”
Efficacy assessment of tumor response and disease progression are conducted in accordance with IMWG criteria. […] Bone marrow examinations, skeletal surveys, computed tomography (CT) or magnetic resonance imaging ([…]) to evaluate lytic and/or extramedullary plasmacytomas, and serum calcium corrected for albumin are evaluated as necessary based on patient's baseline disease status. […]

[4] = AB79 300 or 600 mg with LenDex or VRd, 10 patients enrolled

In the case of “AB79: anti-CD38 monoclonal IgG1 antibody; heavy chain SEQ ID NO:11, light chain SEQ ID NO:12”, the “serious adverse events (SAEs)” value ([1]; 74 healthy subjects, single IV or SC dose escalation) is reported as “no serious adverse events”, the “neutrophil, lymphocyte, monocyte, RBC and platelet counts” value ([1]; healthy subjects, all dose cohorts) is reported as “remained within normal ranges” and the “TEAE regardless of causality: abdominal pain” value [2, 4] is reported as 2 patients. For the same substance, the “TEAE regardless of causality: chills” value [2, 4] was 2 patients, the “TEAE regardless of causality: decreased lymphocyte count” value [2, 4] was 5 patients and the “TEAE regardless of causality: diarrhea” value [2, 4] was 3 patients. For the same substance, the “TEAE regardless of causality: dysgeusia” value [2, 4] was 2 patients, the “TEAE regardless of causality: fatigue” value [2, 4] was 2 patients and the “TEAE regardless of causality: muscle spasms” value [2, 4] was 2 patients. For the same substance, the “TEAE regardless of causality: nausea” value [2, 4] was 2 patients, the “TEAE regardless of causality: neutropenia” value [2, 4] was 2 patients and the “TEAE regardless of causality: peripheral edema” value [2, 4] was 2 patients. For the same substance, the “TEAE regardless of causality: sinusitis” value [2, 4] was 2 patients, the “dose-limiting toxicities (DLTs)” value ([2]; AB79 with LenDex or VRd) was “No DLTs” and the “drug-related serious AEs, AEs that resulted in any drug discontinuation, or on-study deaths” value ([2]; AB79 with LenDex or VRd) was “no”. For the same substance, the “preliminary objective response rate (ORR)” value [3] was 100%.
